Reference: patent US20100158968A1 (PURDUE RESEARCH FOUNDATION, published 2010)
Non-standard residues stand in square brackets, D forms with d. No end group written: not given here.

Key:
Assay in all cases: cell-based or functional assay
[1] = target: T1, mitogen-activated protein kinase-activated protein kinase 2 (human MK2) (human, UniProt P49137 46-400, limits assumed)
[2] = target: T1, mitogen-activated protein …; remark: listed apart in the source
[3] = target: MK3 (mitogen-activated protein kinase-activated protein kinase 3) (human, UniProt Q16644 1-382, limits assumed)
[4] = target: T2, PRAK (h) (p38 regulated/activated protein kinase) (human, UniProt Q8IW41 1-473, limits assumed)
T2 sequence (looked up): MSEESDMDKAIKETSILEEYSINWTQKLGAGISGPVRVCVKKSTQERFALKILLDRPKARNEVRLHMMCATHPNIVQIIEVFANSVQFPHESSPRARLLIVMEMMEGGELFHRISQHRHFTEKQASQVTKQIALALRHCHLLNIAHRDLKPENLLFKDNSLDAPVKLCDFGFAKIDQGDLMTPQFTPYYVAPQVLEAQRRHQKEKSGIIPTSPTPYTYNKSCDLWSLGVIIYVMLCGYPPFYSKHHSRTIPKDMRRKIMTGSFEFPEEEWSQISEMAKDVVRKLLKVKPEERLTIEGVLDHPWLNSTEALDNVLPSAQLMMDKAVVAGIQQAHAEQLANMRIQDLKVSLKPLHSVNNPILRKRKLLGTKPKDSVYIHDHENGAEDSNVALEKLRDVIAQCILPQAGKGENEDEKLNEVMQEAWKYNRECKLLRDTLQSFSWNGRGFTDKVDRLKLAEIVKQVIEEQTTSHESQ

[5] = target: CaMKI (h) (calcium/calmodulin-dependent protein kinase) (human, UniProt Q14012 1-370, limits assumed)
[6] = target: T3, IRAK4 (h) (IL-1 receptor (IL-1R)-associated kinase) (human, UniProt Q9NWZ3 1-460, limits assumed)
T3 sequence (looked up): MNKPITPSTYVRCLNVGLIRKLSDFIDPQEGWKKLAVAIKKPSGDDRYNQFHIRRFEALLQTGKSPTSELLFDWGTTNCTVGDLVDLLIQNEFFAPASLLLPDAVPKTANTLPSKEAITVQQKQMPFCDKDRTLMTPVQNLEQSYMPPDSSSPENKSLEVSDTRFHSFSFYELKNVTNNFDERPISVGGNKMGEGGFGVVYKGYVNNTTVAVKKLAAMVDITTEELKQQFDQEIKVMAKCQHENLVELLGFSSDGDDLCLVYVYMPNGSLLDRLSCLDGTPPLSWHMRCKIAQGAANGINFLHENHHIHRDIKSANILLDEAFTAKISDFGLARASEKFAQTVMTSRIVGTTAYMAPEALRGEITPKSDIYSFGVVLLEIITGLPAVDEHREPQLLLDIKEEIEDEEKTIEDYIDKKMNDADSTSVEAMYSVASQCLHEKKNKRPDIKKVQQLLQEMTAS

[7] = target: MLCK (h) (myosin light chain kinase) (human)
[8] = target: PKBβ (h) (protein kinase B) (human, UniProt P31751 120-481, limits assumed)
[9] = target: ROCK-I (h) (Rho-associated serine/threonine kinase) (human, UniProt Q13464 17-535, limits assumed)
SAPK2a (h) (p38α) = SAPK2a (h) (p38α) (human, UniProt Q16539 1-360)
Chain of SAPK2a (h) (p38α) (Q16539 whole entry): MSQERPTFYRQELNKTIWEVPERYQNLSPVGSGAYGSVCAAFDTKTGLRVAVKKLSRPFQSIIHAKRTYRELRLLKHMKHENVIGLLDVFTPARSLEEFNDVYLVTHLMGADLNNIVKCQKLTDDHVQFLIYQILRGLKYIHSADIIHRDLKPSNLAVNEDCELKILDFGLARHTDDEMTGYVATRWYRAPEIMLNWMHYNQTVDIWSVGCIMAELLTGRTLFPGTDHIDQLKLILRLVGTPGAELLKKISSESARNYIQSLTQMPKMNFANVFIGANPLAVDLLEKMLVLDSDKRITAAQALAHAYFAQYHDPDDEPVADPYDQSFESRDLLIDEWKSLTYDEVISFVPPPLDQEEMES

Chain of MK3 (mitogen-activated protein kinase-activated protein kinase 3) (Q16644 whole entry): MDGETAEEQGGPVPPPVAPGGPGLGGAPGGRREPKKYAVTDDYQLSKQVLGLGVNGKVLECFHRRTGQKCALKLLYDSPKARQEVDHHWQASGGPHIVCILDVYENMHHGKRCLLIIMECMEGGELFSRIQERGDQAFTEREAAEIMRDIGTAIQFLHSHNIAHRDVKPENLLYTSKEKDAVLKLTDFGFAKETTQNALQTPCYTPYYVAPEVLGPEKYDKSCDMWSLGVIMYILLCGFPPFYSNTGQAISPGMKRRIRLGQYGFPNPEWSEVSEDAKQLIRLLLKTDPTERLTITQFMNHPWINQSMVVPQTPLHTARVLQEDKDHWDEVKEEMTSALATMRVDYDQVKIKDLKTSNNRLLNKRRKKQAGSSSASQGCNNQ
Chain of PKBβ (h) (protein kinase B) (P31751 120-481 limits assumed): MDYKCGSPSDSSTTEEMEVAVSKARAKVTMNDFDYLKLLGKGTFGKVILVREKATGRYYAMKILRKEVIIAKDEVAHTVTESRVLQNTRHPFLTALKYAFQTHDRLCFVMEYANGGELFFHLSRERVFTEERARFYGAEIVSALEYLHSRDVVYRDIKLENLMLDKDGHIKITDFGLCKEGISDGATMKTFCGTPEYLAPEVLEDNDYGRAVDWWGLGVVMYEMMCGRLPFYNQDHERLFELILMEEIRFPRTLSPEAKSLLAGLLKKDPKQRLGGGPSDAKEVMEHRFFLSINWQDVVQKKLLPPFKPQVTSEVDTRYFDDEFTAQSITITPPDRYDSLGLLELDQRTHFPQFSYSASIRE
T1 sequence (P49137 46-400 limits assumed): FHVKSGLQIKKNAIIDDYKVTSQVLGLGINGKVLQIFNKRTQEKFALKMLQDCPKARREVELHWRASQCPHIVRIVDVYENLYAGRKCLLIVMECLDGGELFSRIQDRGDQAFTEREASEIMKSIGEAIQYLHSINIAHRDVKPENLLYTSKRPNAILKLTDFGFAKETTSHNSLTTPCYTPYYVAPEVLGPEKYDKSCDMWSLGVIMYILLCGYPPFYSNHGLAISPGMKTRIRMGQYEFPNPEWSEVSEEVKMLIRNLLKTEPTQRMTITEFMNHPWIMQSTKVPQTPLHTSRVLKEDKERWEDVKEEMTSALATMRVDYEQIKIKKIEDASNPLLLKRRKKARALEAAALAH
Chain of ROCK-I (h) (Rho-associated serine/threonine kinase) (Q13464 17-535 limits assumed): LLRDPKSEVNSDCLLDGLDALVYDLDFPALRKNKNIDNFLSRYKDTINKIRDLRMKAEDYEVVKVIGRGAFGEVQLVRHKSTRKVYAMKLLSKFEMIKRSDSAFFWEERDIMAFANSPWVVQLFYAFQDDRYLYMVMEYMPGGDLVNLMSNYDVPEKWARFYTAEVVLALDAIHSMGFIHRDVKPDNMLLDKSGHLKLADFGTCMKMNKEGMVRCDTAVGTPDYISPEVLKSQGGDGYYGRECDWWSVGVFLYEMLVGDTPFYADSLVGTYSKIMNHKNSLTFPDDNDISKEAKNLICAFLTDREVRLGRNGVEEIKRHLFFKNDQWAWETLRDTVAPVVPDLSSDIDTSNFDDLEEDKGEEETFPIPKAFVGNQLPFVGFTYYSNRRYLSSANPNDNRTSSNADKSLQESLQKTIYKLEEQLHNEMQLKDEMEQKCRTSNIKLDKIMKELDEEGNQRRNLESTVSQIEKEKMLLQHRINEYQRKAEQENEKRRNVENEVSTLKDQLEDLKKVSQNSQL
Chain of CaMKI (h) (calcium/calmodulin-dependent protein kinase) (Q14012 whole entry): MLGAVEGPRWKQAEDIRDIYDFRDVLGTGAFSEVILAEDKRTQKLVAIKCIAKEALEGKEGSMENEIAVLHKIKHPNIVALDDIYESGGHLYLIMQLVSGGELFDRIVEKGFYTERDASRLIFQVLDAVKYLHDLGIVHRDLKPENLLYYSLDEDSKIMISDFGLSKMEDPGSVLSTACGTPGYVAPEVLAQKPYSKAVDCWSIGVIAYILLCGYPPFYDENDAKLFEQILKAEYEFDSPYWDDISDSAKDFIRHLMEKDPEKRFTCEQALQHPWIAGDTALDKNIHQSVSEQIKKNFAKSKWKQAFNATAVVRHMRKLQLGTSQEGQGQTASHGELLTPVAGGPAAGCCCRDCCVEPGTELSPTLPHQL

B1: KALdNRQLGVAA (peptide)
peptide: KAL[dN]RQLGVAA-NH2
modifications: N-terminus assumed
SMILES: CC(C)C[C@H](NC(=O)[C@H](C)NC(=O)[C@@H](N)CCCCN)C(=O)N[C@H](CC(N)=O)C(=O)N[C@@H](CCCNC(=N)N)C(=O)N[C@@H](CCC(N)=O)C(=O)N[C@@H](CC(C)C)C(=O)NCC(=O)N[C@H](C(=O)N[C@@H](C)C(=O)N[C@@H](C)C(N)=O)C(C)C
% change in MK2 reaction velocity vs unsubstituted …, peptide at 100 µM [1]: -5%

B2: KALNdRQLGVAA (peptide)
peptide: KALN[dR]QLGVAA-NH2
modifications: N-terminus assumed
SMILES: CC(C)C[C@H](NC(=O)[C@H](C)NC(=O)[C@@H](N)CCCCN)C(=O)N[C@@H](CC(N)=O)C(=O)N[C@H](CCCNC(=N)N)C(=O)N[C@@H](CCC(N)=O)C(=O)N[C@@H](CC(C)C)C(=O)NCC(=O)N[C@H](C(=O)N[C@@H](C)C(=O)N[C@@H](C)C(N)=O)C(C)C
% change in MK2 reaction velocity vs unsubstituted …, peptide at 100 µM [1]: 206%

B3: KALNRdQLGVAA (peptide)
peptide: KALNR[dQ]LGVAA-NH2
modifications: N-terminus assumed
SMILES: CC(C)C[C@H](NC(=O)[C@H](C)NC(=O)[C@@H](N)CCCCN)C(=O)N[C@@H](CC(N)=O)C(=O)N[C@@H](CCCNC(=N)N)C(=O)N[C@H](CCC(N)=O)C(=O)N[C@@H](CC(C)C)C(=O)NCC(=O)N[C@H](C(=O)N[C@@H](C)C(=O)N[C@@H](C)C(N)=O)C(C)C
% change in MK2 reaction velocity vs unsubstituted …, peptide at 100 µM [1]: 176%

B4: KALNRQdLGVAA (peptide)
peptide: KALNRQ[dL]GVAA-NH2
modifications: N-terminus assumed
SMILES: CC(C)C[C@H](NC(=O)[C@H](C)NC(=O)[C@@H](N)CCCCN)C(=O)N[C@@H](CC(N)=O)C(=O)N[C@@H](CCCNC(=N)N)C(=O)N[C@@H](CCC(N)=O)C(=O)N[C@H](CC(C)C)C(=O)NCC(=O)N[C@H](C(=O)N[C@@H](C)C(=O)N[C@@H](C)C(N)=O)C(C)C
% change in MK2 reaction velocity vs unsubstituted …, peptide at 100 µM [1]: 257%

B5: KALNRQLGdVAA (peptide)
peptide: KALNRQLG[dV]AA-NH2
modifications: N-terminus assumed
SMILES: CC(C)C[C@H](NC(=O)[C@H](C)NC(=O)[C@@H](N)CCCCN)C(=O)N[C@@H](CC(N)=O)C(=O)N[C@@H](CCCNC(=N)N)C(=O)N[C@@H](CCC(N)=O)C(=O)N[C@@H](CC(C)C)C(=O)NCC(=O)N[C@@H](C(=O)N[C@@H](C)C(=O)N[C@@H](C)C(N)=O)C(C)C
% change in MK2 reaction velocity vs unsubstituted …, peptide at 100 µM [1]: 160%

B6: KALNRQLGVA (peptide)
peptide: KALNRQLGVA
% change in MK2 reaction velocity vs unsubstituted …, peptide at 100 µM [1]: 0%

B7: WLRRIKAWLRRIKALNRQLGVAA (peptide)
peptide: WLRRIKAWLRRIKALNRQLGVAA
Kinase Activity, peptide at 30 µM, radiometric assay [2]: 2%
Kinase Activity, peptide at 30 µM, radiometric assay [3]: 16%
Kinase Activity, peptide at 30 µM, radiometric assay [4]: 67%
Kinase Activity, peptide at 30 µM, radiometric assay [5]: 9%
Kinase Activity, peptide at 30 µM, radiometric assay [6]: 12%
Kinase Activity, peptide at 30 µM, radiometric assay [7]: 4%
Kinase Activity, peptide at 30 µM, radiometric assay [8]: 18%
Kinase Activity, peptide at 30 µM, radiometric assay [9]: 0%
Kinase Activity, peptide at 30 µM, radiometric assay (SAPK2a (h) (p38α)): 61%

B8: FAKLAARLYRLARQLGVAA (peptide)
peptide: FAKLAARLYRLARQLGVAA
Kinase Activity, peptide at 100 µM, radiometric assay [2]: 5%
Kinase Activity, peptide at 100 µM, radiometric assay [3]: 10%
Kinase Activity, peptide at 100 µM, radiometric assay [4]: 131%
Kinase Activity, peptide at 100 µM, radiometric assay [5]: 0%
Kinase Activity, peptide at 100 µM, radiometric assay [6]: 13%
Kinase Activity, peptide at 100 µM, radiometric assay [7]: 1%
Kinase Activity, peptide at 100 µM, radiometric assay [8]: 16%
Kinase Activity, peptide at 100 µM, radiometric assay [9]: 25%
Kinase Activity, peptide at 100 µM, radiometric assay (SAPK2a (h) (p38α)): 30%

B9: KAFAKLAARLYRLARQLGVAA (peptide)
peptide: KAFAKLAARLYRLARQLGVAA
Kinase Activity, peptide at 100 µM, radiometric assay [2]: 8%
Kinase Activity, peptide at 100 µM, radiometric assay [3]: 17%
Kinase Activity, peptide at 100 µM, radiometric assay [4]: 148%
Kinase Activity, peptide at 100 µM, radiometric assay [5]: 0%
Kinase Activity, peptide at 100 µM, radiometric assay [6]: 16%
Kinase Activity, peptide at 100 µM, radiometric assay [7]: 2%
Kinase Activity, peptide at 100 µM, radiometric assay [8]: 28%
Kinase Activity, peptide at 100 µM, radiometric assay [9]: 29%
Kinase Activity, peptide at 100 µM, radiometric assay (SAPK2a (h) (p38α)): 59%

B10: YARAAARQARALARQLGVAA (peptide)
peptide: YARAAARQARALARQLGVAA
Kinase Activity, peptide at 300 µM, radiometric assay [2]: -7%
Kinase Activity, peptide at 300 µM, radiometric assay [3]: 5%
Kinase Activity, peptide at 300 µM, radiometric assay [4]: 86%
Kinase Activity, peptide at 300 µM, radiometric assay [5]: 2%
Kinase Activity, peptide at 300 µM, radiometric assay [6]: 23%
Kinase Activity, peptide at 300 µM, radiometric assay [7]: 9%
Kinase Activity, peptide at 300 µM, radiometric assay [8]: 17%
Kinase Activity, peptide at 300 µM, radiometric assay [9]: 27%
Kinase Activity, peptide at 300 µM, radiometric assay (SAPK2a (h) (p38α)): 66%

B11: YARAAARQARALNRQLGVAA (peptide)
peptide: YARAAARQARALNRQLGVAA
Kinase Activity, peptide at 300 µM, radiometric assay [2]: 10%
Kinase Activity, peptide at 300 µM, radiometric assay [3]: 19%
Kinase Activity, peptide at 300 µM, radiometric assay [4]: 81%
Kinase Activity, peptide at 300 µM, radiometric assay [5]: 8%
Kinase Activity, peptide at 300 µM, radiometric assay [6]: 68%
Kinase Activity, peptide at 300 µM, radiometric assay [7]: 66%
Kinase Activity, peptide at 300 µM, radiometric assay [8]: 96%
Kinase Activity, peptide at 300 µM, radiometric assay [9]: 95%
Kinase Activity, peptide at 300 µM, radiometric assay (SAPK2a (h) (p38α)): 100%

B12: KKKALNRQLGVAA (peptide)
peptide: KKKALNRQLGVAA
% change in MK2 reaction velocity vs unsubstituted …, peptide at 100 µM [1]: -9%

B13: WLRRIKAWLRRIKALNRQLGV (peptide)
peptide: WLRRIKAWLRRIKALNRQLGV
% change in MK2 reaction velocity vs unsubstituted …, peptide at 100 µM [1]: -132%

B14: WLRRIKA (non-functional) (peptide)
peptide: WLRRIKA
% change in MK2 reaction velocity vs unsubstituted …, peptide at 100 µM [1]: 4310%

B15: WLRRIKAWLRRIKA (peptide)
peptide: WLRRIKAWLRRIKA
% change in MK2 reaction velocity vs unsubstituted …, peptide at 100 µM [1]: -83%

B16: KAANRQLGVAA (peptide)
peptide: KAANRQLGVAA
% change in MK2 reaction velocity vs unsubstituted …, peptide at 100 µM [1]: 52%

B17: YGRKKRRQRRR (peptide)
peptide: YGRKKRRQRRR
% change in MK2 reaction velocity vs unsubstituted …, peptide at 100 µM [1]: 44%

B18: KALARQLGVAA (peptide)
peptide: KALARQLGVAA
% change in MK2 reaction velocity vs unsubstituted …, peptide at 100 µM [1]: -61%

B19: KALNAQLGVAA (peptide)
peptide: KALNAQLGVAA
% change in MK2 reaction velocity vs unsubstituted …, peptide at 100 µM [1]: 258%

B20: Alanine-substitution peptide printed as KALNRQLGVAA (Table 1, fourth alanine row) (peptide)
peptide: KALNRQLGVAA
% change in MK2 reaction velocity vs unsubstituted …, peptide at 100 µM [1]: 258%

B21: KALNRQAGVAA (peptide)
peptide: KALNRQAGVAA
% change in MK2 reaction velocity vs unsubstituted …, peptide at 100 µM [1]: 18%

B22: KALNRQLAVAA (peptide)
peptide: KALNRQLAVAA
% change in MK2 reaction velocity vs unsubstituted …, peptide at 100 µM [1]: -28%

B23: KALNRQLGAAA (peptide)
peptide: KALNRQLGAAA
% change in MK2 reaction velocity vs unsubstituted …, peptide at 100 µM [1]: 273%

B24: KAdLNRQLGVAA (peptide)
peptide: KA[dL]NRQLGVAA-NH2
modifications: N-terminus assumed
SMILES: CC(C)C[C@H](NC(=O)[C@H](CCC(N)=O)NC(=O)[C@H](CCCNC(=N)N)NC(=O)[C@H](CC(N)=O)NC(=O)[C@@H](CC(C)C)NC(=O)[C@H](C)NC(=O)[C@@H](N)CCCCN)C(=O)NCC(=O)N[C@H](C(=O)N[C@@H](C)C(=O)N[C@@H](C)C(N)=O)C(C)C
% change in MK2 reaction velocity vs unsubstituted …, peptide at 100 µM [1]: 46%
